Laboratory results from patent publication US20250270339A1 (Alector, published 2025).

T1: huTfR Apical Domain-Avi-His (human, biotin on the Avi tag (BirA) where captured on streptavidin)
T1 construct: also called huTfR apical Avi-His; hTfR Apical
T1 chain: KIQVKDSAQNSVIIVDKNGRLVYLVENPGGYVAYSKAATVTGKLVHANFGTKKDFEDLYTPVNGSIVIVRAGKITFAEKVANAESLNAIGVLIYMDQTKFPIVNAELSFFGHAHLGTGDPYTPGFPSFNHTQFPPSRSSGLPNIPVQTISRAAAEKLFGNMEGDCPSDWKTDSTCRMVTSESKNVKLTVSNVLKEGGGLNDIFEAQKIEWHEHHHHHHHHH


Experiments:
[1] = target: T2, Full length Mouse TfR on CHO cells (mouse, UniProt Q62351 1-763); experiment: FACS, CHO+muTfR
T2 construct: also called CHO + muTfR
T2 sequence (Q62351 whole entry): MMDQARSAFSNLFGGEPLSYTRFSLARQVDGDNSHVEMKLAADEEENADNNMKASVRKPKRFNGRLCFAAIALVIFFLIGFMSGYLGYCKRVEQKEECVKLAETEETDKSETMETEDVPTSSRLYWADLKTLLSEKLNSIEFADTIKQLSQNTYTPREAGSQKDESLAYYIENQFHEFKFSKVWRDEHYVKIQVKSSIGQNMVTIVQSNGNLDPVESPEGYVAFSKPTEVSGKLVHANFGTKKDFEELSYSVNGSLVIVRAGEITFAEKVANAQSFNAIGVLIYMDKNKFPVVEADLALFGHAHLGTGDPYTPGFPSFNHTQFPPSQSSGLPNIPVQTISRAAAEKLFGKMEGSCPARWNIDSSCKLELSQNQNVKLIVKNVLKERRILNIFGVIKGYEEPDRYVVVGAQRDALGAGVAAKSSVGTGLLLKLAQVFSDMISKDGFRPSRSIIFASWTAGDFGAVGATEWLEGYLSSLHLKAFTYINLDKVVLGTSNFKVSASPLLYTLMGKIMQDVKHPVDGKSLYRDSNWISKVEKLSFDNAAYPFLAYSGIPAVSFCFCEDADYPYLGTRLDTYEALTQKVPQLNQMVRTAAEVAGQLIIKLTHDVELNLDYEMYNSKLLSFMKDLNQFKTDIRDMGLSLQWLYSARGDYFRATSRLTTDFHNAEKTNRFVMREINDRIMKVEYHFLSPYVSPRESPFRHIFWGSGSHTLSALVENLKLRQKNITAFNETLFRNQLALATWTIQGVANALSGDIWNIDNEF
Description: (§1) A total of 1536 anti-TfR hybridoma supernatants were initially screened for their ability to differentially bind CHO cells overexpressing human or mouse TfR cells compared to CHO parental cells by FACS. Overexpressing cells were harvested, washed and labeled with Pacific Blue, FITC and Pacific Orange dyes (ThermoFisher) to create uniquely barcoded cell populations. Barcoded cells (5×10⁴ of each cell population) were aliquoted into 96-well U-bottom plates and incubated with 50 μl of hybridoma cell culture supernatant or […] of commercially available purified mouse anti-human TfR monoclonal antibody (Sigma Aldrich, Cat #SAB4700515) and rat anti-mouse TfR antibody (Invitrogen, Waltham, MA, Cat #R17217) on ice for 30 minutes. After this primary incubation, the supernatants were removed via centrifugation, the cells were washed twice with 175 μl of ice-cold FACS buffer (PBS+1% FBS+2 mM EDTA), and the cells were then further incubated on ice for 20 minutes with anti-mouse IgG Fc-allophycocyanin (APC) or anti-rat IgG Fc-APC (Jackson Labs, Cat #115-136-071 and Cat #112-136-071, respectively) (diluted 1:1000). Following this secondary antibody incubation, the cells were again washed twice with ice-cold FACS buffer and resuspended in a final volume of 50 μl of FACS buffer. Binding intensity on cells was analyzed using the FACS Canto system (BD Biosciences), and the ratio of APC Mean Fluorescence Intensity (MFI) on each barcoded cell population was determined for each anti-TfR hybridoma supernatant tested.

[2] = target: T1, huTfR Apical Domain-Avi-His; experiment: ELISA OD450, supernatant
Description: Hybridoma culture supernatants from 319 hybridomas obtained as described above were screened for their ability to bind Avi-His-tagged huTfR ECD, huTfR apical domain, and muTfR ECD (as described in Example 1) as compared to binding to an irrelevant Avi-His-tagged control protein. Briefly, 96-well polystyrene plates were coated with 5 μg/ml of streptavidin (Thermo Fisher, Cat #PI21125) in coating buffer (0.05M carbonate buffer, pH 9.6, Sigma, Cat #C3041) overnight at 4° C. Coated plates were then blocked with ELISA diluent (PBS+0.5% BSA+0.05% Tween20) for one hour. Blocking buffer was removed and Avi-His-tagged human TfR, human TfR apical domain, mouse TfR and an irrelevant Avi-His-tagged protein were added at 1 μg/ml in ELISA diluent and captured for 1 hour at room temperature. After washing three times with 300 μl of PBST (PBS+0.05% Tween20, Thermo 28352), the hybridoma cell culture supernatants were added (50 μl/well) to each well. After 30 minutes of incubation at room temperature, the plates were washed three times with 300 μl of PBST. Anti-mouse IgG Fc-HRP or anti-rat IgG Fc-HRP (Jackson Immunoresearch, Cat #115-035-071 and 112-036-071, respectively) secondary antibodies were diluted 1:5000 in ELISA diluent, added to each well at 50 μl/well, and incubated for 30 minutes at room temperature with shaking. After a final set of washes (3×300 μl in PBST), 50 μl/well of BioFx TMB substrate (Surmodics, Cat #TMBW-1000-01) was added to the wells. The reaction was then quenched after 5-10 mins with 50 μl/well of 2N sulfuric acid. The plates were read for absorbance at 450 nm on a SpectraMax M5 (Molecular Devices, Sunnyvale, CA) using SoftMax Pro software.

[3] = target: T3, Full length human TfR on CHO cells (human, UniProt P02786 1-760); experiment: FACS MFI, supernatant
T3 construct: also called CHO + huTfR; CHO + hTfR
T3 sequence (P02786 whole entry): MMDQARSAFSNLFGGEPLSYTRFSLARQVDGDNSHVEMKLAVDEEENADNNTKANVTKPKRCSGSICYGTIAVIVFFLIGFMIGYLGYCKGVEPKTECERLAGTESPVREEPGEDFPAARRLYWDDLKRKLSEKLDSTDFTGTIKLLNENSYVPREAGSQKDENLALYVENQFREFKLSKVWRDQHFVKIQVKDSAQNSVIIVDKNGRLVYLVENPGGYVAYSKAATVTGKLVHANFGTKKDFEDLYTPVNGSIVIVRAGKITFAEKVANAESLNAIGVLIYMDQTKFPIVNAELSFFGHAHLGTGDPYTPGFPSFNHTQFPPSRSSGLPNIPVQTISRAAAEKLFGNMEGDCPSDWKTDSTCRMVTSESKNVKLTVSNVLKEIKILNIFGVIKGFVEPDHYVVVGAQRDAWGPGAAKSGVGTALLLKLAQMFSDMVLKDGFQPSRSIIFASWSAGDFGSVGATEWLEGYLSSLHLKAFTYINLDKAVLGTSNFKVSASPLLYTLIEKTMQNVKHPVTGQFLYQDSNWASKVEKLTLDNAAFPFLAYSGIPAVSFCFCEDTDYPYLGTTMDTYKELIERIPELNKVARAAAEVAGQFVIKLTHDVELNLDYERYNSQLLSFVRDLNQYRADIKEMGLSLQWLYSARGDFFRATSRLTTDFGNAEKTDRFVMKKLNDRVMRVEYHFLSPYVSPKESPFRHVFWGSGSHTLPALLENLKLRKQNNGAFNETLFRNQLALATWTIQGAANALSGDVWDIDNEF
Description: as §1

[4] = target: T2, Full length Mouse TfR on CHO cells; experiment: FACS MFI, supernatant
Description: as §1

binding result [1] | ratio over irrelevant protein [2] [fold] | fold over parental (CHO WT) [3] [fold] | fold over parental (CHO WT) [4] [fold] | Binder
no binding | 15 | 561 | 1 | TfR5 (mouse hybridoma antibody) (antibody, V domains shown, mouse IgG in hybridoma supernatant) VH: QVQLQQSGPELVKPGASVKMSCKASGYTFTNYYIHWVKQRPGQGLEWIGWIYPGDGNTNYNEKFKGKTTLTADKSSSTAYMLLSSLTSEDSAIYFCARDGSSAPKFTYWGQGTLVTVSA VL: DIVMTQSPSSLTVTAGEKVTMRCKSSQSLLNSGNQKNYLTWYQQKPGQPPKLLFYWASTRESGVPDRFTGSGSGTDFTLTISSVQAEDLAVYYCQNDYSYPLTFGAGTKLELK
no binding | 5 | 458 | 1 | TfR2 (mouse hybridoma antibody) (antibody, V domains shown, mouse IgG in hybridoma supernatant) VH: EVQLQQSGPELVKPGASVKISCKASGYTFTDYNMHWVKQSHGKSLEWIGYIYPYNGGTGYNQKFKSKATLTVDNSSSTAYMELRSLTSEDSAVYYCATLYDGYYFDYWGQGTTLTVSS VL: DILLTQSPAILSVSPGERVSFSCRASQSIGTSIHWYQQRTNGSPRLLIKYASESISGIPSRFSGSGSGTDFTLSINNVESEDIADYYCQQSNSWPFTFGSGTKLEIK
no binding | 37 | 215 | 1 | TfR8 (mouse hybridoma antibody) (antibody, V domains shown, mouse IgG in hybridoma supernatant) VH: QVQLQQSGAELVRPGTSVKVSCKASGYAFTNYLIEWVKQRPGQGLEWIGVINPGSGGTNYNEKFKGKATLTADKSSSTAYMQLSSLTSDDSAVYFCARRSPYFDYWGQGTTLTVSS VL: SIVMTQTPKFLLVSAGDRVTITCKASQSVSNDVAWYQQKPGQSPKLLIYYASNRYTGVPDRFTGSGYGTDFTFTISTVQAEDLAVYFCHQDYISPTFGGGTKLEIK

The next lines start with the binder.

Binder | binding result [1] | ratio over irrelevant protein [2] [fold] | fold over parental (CHO WT) [3] [fold] | fold over parental (CHO WT) [4] [fold]
TfR1 (mouse hybridoma antibody) (antibody, V domains shown, mouse IgG in hybridoma supernatant) VH: QVQLQQSGPELVKPGASVKMSCKASGYTFTNYYIHWVKQRPGQGLEWIGWIYPGDGSTKYNEKFKGKTTLTADKSSSTAYMLLSSLTSEDSAIYFCARDGSSAPKFTYWGQGTLVTVSA VL: DIVMTQSPSSLTVTAGEKVTMRCKSSQSLLNSGNQKNYLTWYQQKPGQPPKLLIYWASTRESGVPDRFTGSGSGTDFTLTISSVQAEDLAVYYCQNDYSYPLTFGAGTKLELK | no binding | 22 | 228 | 1
TfR3 (mouse hybridoma antibody) (antibody, V domains shown, mouse IgG in hybridoma supernatant) VH: QVQLRQSGPELVKPGASVRISCKASGYTFTSFYIHWVKQRPGQGLEWIGWIYPGDVNTHYSDKFKGKATLTADKSSSTAYMQLSSLTSEDSAVYFCAREGYGYFAYWGQGTLVTVSA VL: DIVMTQSPSSLTVTAGEKVTMSCKSSQSLLNSGNQKNYLTWYQQKPGQPPKLLIYWASTRESGVPDRFTGVGSGTDFTLTISSVQAEDLAVYYCQNDYSYPLTFGSGTKLELK | no binding | 37 | 38 | 1
TfR4 (mouse hybridoma antibody) (antibody, V domains shown, mouse IgG in hybridoma supernatant) VH: QVQLQQSGAELVRPGTSVKVSCKASGYAFTNYLIEWVKQRPGQGLEWIGVINPGSGGTTYNEKFKGKATLTADKSSSTAYMQLSGLTSDDSAVYFCARRSPYFDYWGQGTTLTVSS VL: SIVMTQTPKFLLVSAGDRVTITCKASQSVSNDVAWYQQKPGQSPKLLIYYASNRYTGVPDRFTGSGYGTDFTFTISTVQAEDLAVYFCHQDYISPTFGGGTKLEIK | no binding | 42 | 61 | 1
TfR30 (mouse hybridoma antibody) (antibody, V domains shown, mouse IgG in hybridoma supernatant) VH: QVQLQQSGPQLVRPGASVKISCKASGYSFTNYWLHWVKQRPGQGLEWIGMIDPSDSETRLNQKFKDKATLTVDKSSSTAYMQLSSPTSEDSAVYYCARWGGGYYGFAYWGQGTLVTVSA VL: DIVMTQSQKFMSTSVGDRVSITCKASQNVRTAVAWYQQKPGQSPKALIYLASNRHTGVPDRFTGSGSGTDFTLTISNVQSEDLADYFCLQHWNYPWTFGGGTKLEIK | – | 29 | 169 | 1
